These results are taken from patent US20110158992A1 (SCHERING, published 2011).

Experiment [1] has as its target T1, human IL-23R (human, UniProt Q5VWK5 24-353, limits assumed).
T1 construct: also called huIL-23R; human interleukin-23R
T1 sequence: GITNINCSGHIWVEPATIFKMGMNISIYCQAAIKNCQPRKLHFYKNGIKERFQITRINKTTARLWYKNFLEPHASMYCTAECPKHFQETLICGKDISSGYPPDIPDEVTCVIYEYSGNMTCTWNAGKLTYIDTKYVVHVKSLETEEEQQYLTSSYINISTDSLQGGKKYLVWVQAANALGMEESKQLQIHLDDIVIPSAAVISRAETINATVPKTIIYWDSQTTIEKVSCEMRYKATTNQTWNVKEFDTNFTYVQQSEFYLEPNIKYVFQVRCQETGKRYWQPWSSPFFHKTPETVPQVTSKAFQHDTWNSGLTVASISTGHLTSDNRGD
Nature of the experiment: KinExA. On the procedure:
(§1) The equilibrium dissociation constants (Kd) for anti human IL-23R antibodies are determined using the KinExA. 3000 instrument. Sapidyne Instruments Inc., Boise Id., USA. KinExA uses the principle of the Kinetic Exclusion Assay method based on measuring the concentration of uncomplexed antibody in a mixture of antibody, antigen and antibody-antigen complex. The concentration of free antibody is measured by exposing the mixture to a solid-phase immobilized antigen for a very brief period of time. In practice, this is accomplished by flowing the solution phase antigen-antibody mixture past antigen-coated particles trapped in a flow cell. Data generated by the instrument are analyzed using custom software. Equilibrium constants are calculated using a mathematical theory based on the lowing assumptions: [0177] 1. The binding follows the reversible binding equation for equilibrium: […]
PMMA particles (Sapidyne, Cat No. 440198) are coated with biotinylated IL-23R (or a fragment thereof, such as the extracellular domain) according to Sapidyne “Protocol for coating PMMA particles with biotinylated ligands having short or nonexistent linker arms.” EZ-link TFP PEO-biotin (Pierce, Cat. No. 21219) is used to make biotinylated IL-23R, as per the manufacturer's recommendations (Pierce bulletin 0874).

The target of experiment [2] is T1, human IL-23R. In words: BIAcore SPR, antibody immobilised. The method, then: (§2) BIAcore® label-free interaction analysis system determinations are performed essentially as described at Example 4 of U.S. Patent Application Publication No. 2007/0048315, which is hereby incorporated by reference. Briefly, ligands (anti-IL-23R mAbs) are immobilized on a BIAcore® label-free interaction analysis system CM5 sensor chip using standard amine-coupling procedure. Kinetic constants for the various interactions are determined using BIAevaluation software 3.1. The Kd is determined using the calculated dissociation and association rate constants.

Experiment [3] addresses T1, human IL-23R. In words: BIAcore SPR, antibody immobilised. On the procedure:
as §2
Several sequence variants intended to increase the chemical stability of hu8B10-b were produced to evaluate their effects on binding affinity. Kd values are provided at Table 3. Binding to human IL-23R was determined using the BIAcore® label-free interaction analysis system (surface plasmon resonance), essentially as described in Example 4 (supra). Chimeric forms, designated as “chim,” refers to rat variable domains linked to human IgG1 heavy chain and human kappa light chain constant domains, e.g., as presented at SEQ ID NOs: 16 and 17, respectively, or as at SEQ ID NOs: 22 and 23, respectively. Sequences for heavy and light chain variable domains are provided at FIGS. 1 and 2, and in the Sequence Listing (as described at Table 4). Antibodies incorporate the sequence changes recited in the table (“Variant(s)”) for the respective heavy and light chains. Data arc presented as mean±standard deviation for multiple determinations, and without error estimates for single determinations.
The source holds these as a separate data set. (Surface plasmon resonance follows binding to a sensor surface in real time, without labels.)

Experiment [4] has as its target T1, human IL-23R. Nature of the experiment: KinExA, full-length chimeric antibody; original sequence (no N31T). The method, then:
as §1
(§3) PMMA particles (Sapidyne, Cat No. 440198) are coated with biotinylated IL-23R (or a fragment thereof, such as the extracellular domain) according to Sapidyne “Protocol for coating PMMA particles with biotinylated ligands having short or nonexistent linker arms.” EZ-link TFP PEO-biotin (Pierce, Cat. No. 21219) is used to make biotinylated IL-23R, as per the manufacturer's recommendations (Pierce bulletin 0874). […]
(In general: In KinExA the mixture passes briefly over coated beads that capture the unbound partner.)

Experiment [5] deals with T1, human IL-23R. Nature of the experiment: KinExA, full-length chimeric antibody. On the procedure:
as §1, §3

In experiment [6] the target is T1, human IL-23R. Nature of the experiment: KinExA, full-length chimeric antibody; N31T variant, full-length chimeric. On the procedure: as §1, §3

B1: rat anti-human IL-23R antibody 8B10 (antibody, rat IgG2a, V domains shown)
VH: EVKLVESGGGLEQPKGSLKLSCTVSGFDFNSYGMSWVRQAPGKGLDLVADINSKSYNYATYYADSVKDRFTISRDDSQSMVYLEMDNLKTEDTALYYCTVHHSDYFEYWGQGVMVTVSS
VL: DIQMTQSPASLSASLGETVSIECLASEDIYNNLAWYQQKPGKSPQLLIYHASSLQDGVPSRFSGSGSGTQYSLKINSLESEDAATYFCLQDSEYPPTFGGGTKLELKR
notes: also called r8B10
For orientation: Kd means the constant that tells how readily two partners part at equilibrium. Low values mean tighter binding, high ones weaker binding. As for B1, the dissociation constant (Kd) in experiment [1] is 0.042 nM; in experiment [2], approximately 0.3 nM; in experiment [3], 0.27 nM.

B2: chimeric 8B10 full-length antibody (antibody, V domains shown)
VH: EVKLVESGGGLEQPKGSLKLSCTVSGFDFNSYGMSWVRQAPGKGLDLVADINSKSYNYATYYADSVKDRFTISRDDSQSMVYLEMDNLKTEDTALYYCTVHHSDYFEYWGQGVMVTVSS
VL: DIQMTQSPASLSASLGETVSIECLASEDIYNNLAWYQQKPGKSPQLLIYHASSLQDGVPSRFSGSGSGTQYSLKINSLESEDAATYFCLQDSEYPPTFGGGTKLELKR
notes: also called chim8B10
With B2, the results for the Kd in experiment [3] and in experiment [4] were 0.345 nM and 0.025 nM, respectively.

B3: full-length chimeric 8B10 antibody, VL N31T (antibody, V domains shown)
VH: EVKLVESGGGLEQPKGSLKLSCTVSGFDFNSYGMSWVRQAPGKGLDLVADINSKSYNYATYYADSVKDRFTISRDDSQSMVYLEMDNLKTEDTALYYCTVHHSDYFEYWGQGVMVTVSS
VL: DIQMTQSPASLSASLGETVSIECLASEDIYTNLAWYQQKPGKSPQLLIYHASSLQDGVPSRFSGSGSGTQYSLKINSLESEDAATYFCLQDSEYPPTFGGGTKLELKR
notes: also called N31T variant
On to B3, for which the “fold improvement in binding affinity against the original sequence” value in experiment [5] was 3 fold. The Kd in experiment [6] stood at 0.008 nM.
